Laboratory results: paper PMC4569521 (Journal of molecular biology, 2015)
Where no end group is shown, it is not given here. fluorescein = fluorescein label at the N-terminus

Target: T1, N-domain of ClpX (residue 1–64) (E. coli, UniProt P0A6H1 1-64)
T1 sequence (looked up): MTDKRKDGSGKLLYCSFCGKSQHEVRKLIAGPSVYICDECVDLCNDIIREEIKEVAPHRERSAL
Assay: fluorescence polarisation

fluorescein-ESRIVGIFRPSGNTERVKNQ [fluorescein-labeled E-tag peptide (MuA residues 614–633)]
Kd: ~380 µM
